B1: library; numbered along this chain (parent)
chain: MATDAALRRLLRLHRTEIAVAVDSAFPLLHALADHDVVPEDKFQETLHLKEKEGCPQAFHALLSWLLTQDSTAILDFWRVLFKDYNLERYGRLQPILDSFPKDVDLSQPRKGRKPPAVPKALVPPPRLPTKRKASEEARAAAPAALTPRGTASPGSQLKAKPPKKPESSAEQQRLPLGNGIQTMSASVQRAVAMSSGDVPGARGAVEGILIQQVFESGGSKKCIQVGGEFYTPSKFEDSGSGKNKARSSSGPKPLVRAKGAQGAAPGGGEARLGQQGSVPAPLALPSDPQLHQKNEDECAVCRDGGELICCDGCPRAFHLACLSPPLREIPSGTWRCSSCLQATVQEVQPRAEEPRPQEPPVETPLPPGLRSAGEEVRGPPGEPLAGMDTTLVYKHLPAPPSAAPLPGLDSSALHPLLCVGPEGQQNLAPGARCGVCGDGTDVLRCTHCAAAFHWRCHFPAGTSRPGTGLRCRSCSGDVTPAPVEGVLAPSPARLAPGPAKDDTASHEPALHRDDLESLLSEHTFDGILQWAIQSMARPAAPFPS

Variants of: B1
Test: AIRE transcriptional activation functional score (insulin promoter-GFP; nonsense median 0, synonymous median 1) (normalised score); higher = higher AIRE activity (more reporter activation)
Conditions: with insulin promoter-GFP reporter in HEK293
Experimental: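 Deep mutational scan of full-length human AIRE (codon-optimized cDNA, DT-POPCode NNN libraries over three regions) integrated at a Bxb1 landing pad in HEK293 cells carrying an insulin core promoter-GFP reporter at a Flp-In site. Cells were sorted for the top 10% GFP about 14 days after transfection. Variant frequency log-ratios (select vs non-select, TileSeq) were rescaled so that the nonsense median is 0 and the synonymous median is 1, then averaged over biological replicates.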

AIRE transcriptional activation functional score, by site and new letter:
L87: D 0.374, E 1.49, F -0.159, G 0.476, H -0.266, I 1.66, N 0.531, P 0.0832, Q 0.462, R 1.14, S 0.0056, T 0.00113, V 0.869, W -0.816, Y -0.162
E88: A 1.18, C 0.444, D 0.357, F 0.0961, G -0.0199, I 0.434, K 0.437, L 0.861, M 0.132, Q 1.91, R 2.71, S 0.402, T 1.95, V 0.181, W 0.779
R89: A 0.812, C 0.253, F 1.93, G 0.255, H 0.994, L -0.165, M -2.04, P -1.08, Q 0.475, S 1.8, V -3.54, W 0.927
Y90: A 0.366, C 0.198, D 0.18, E -0.843, F 0.00136, G -0.388, H 0.364, I -0.0337, K -0.475, L 0.0613, M 0.613, N 0.194, P 0.0423, Q -0.537, R 0.13, S -0.169, T 0.376, V 0.153, W -0.215
G91: A 0.266, C -0.103, D -0.369, E 1.71, F 0.132, H -0.774, I -0.00302, K -0.415, L 0.236, M 1.02, P 0.488, R 1.22, S 1.19, T 0.431, V 0.766, W 1.54, Y 2.5
R92: A -0.0922, C 0.489, D 0.169, E -0.432, F 0.28, G 0.724, H 0.298, I -0.385, L -0.166, P -0.2, Q 0.461, S 0.275, T -0.129, V -0.0193, W 0.13, Y -0.675
L93: A 0.124, C -0.0574, D -0.0637, E 0.401, F 0.229, G -0.0131, H -0.023, I 0.258, K -0.329, M -0.0479, N 0.43, P 0.0133, Q -0.189, R 0.0258, S -0.0816, T -0.0548, V 0.0157, W 0.0522, Y -0.417
Q94: A 1.44, C -0.262, D 0.228, E 0.0511, F 0.133, G 0.865, H 0.885, I 1.17, K 1.21, L 0.662, M 1.89, N -0.193, P 0.0425, R 1.65, S 0.266, T 0.511, V 1.42, W 1.53, Y 0.209
P95: A 1.12, C 0.979, D 0.444, E 0.792, F 1.19, G 1.01, H 0.425, I 0.95, K 0.336, L 1.38, M 1.41, N 1.56, Q 1.61, R 0.995, S 0.715, T 1.34, V 1.12, W 0.55, Y 1.97
I96: A -0.165, C -0.194, D -0.0149, E 0.112, F 0.253, G -0.689, H 1.08, K 0.201, L 0.547, M -0.371, N 0.24, P -0.0986, Q -1.73, R 0.0358, S -0.438, T -1.01, V 1.14, W -0.358, Y 0.139
L97: A -0.272, C 0.164, D 0.828, E -2.05, F 1.29, G -0.102, H 2.81, I -0.239, M 0.762, N -0.0633, P 0.384, Q -0.412, R 0.805, S -0.186, T -0.118, V 0.394, W -1.69, Y 2.69
D98: A 0.771, C 0.078, E 0.0399, F 0.239, G -0.489, H 1.3, I 0.501, K -0.443, L 0.703, M 1.55, N 0.841, P 0.632, Q 2.07, R 0.621, S 0.163, T -0.235, V 0.341, W -0.885, Y 0.0432
S99: A -0.293, C 1.07, D 0.205, E 0.0893, F 0.636, G 0.382, H 0.569, I 0.822, K 1.65, L 0.541, M 1.07, N 0.889, P 1.51, Q -0.179, R 0.357, V 0.813, W -0.319, Y -0.311
F100: A 0.229, C 0.447, D -0.111, E -0.0797, G -0.223, H 0.644, I 0.0995, K 0.809, L 0.191, M -0.57, N 1.13, P 1.03, Q 1.26, R -0.588, S 0.172, T -2.46, V -0.124, W 1.58, Y -0.017
P101: A 0.415, D 0.335, F -0.111, G 0.302, H 1.17, I -0.0207, L 0.222, M 0.0755, N 0.226, R 0.861, S -0.303, T -0.239, V -1.95, W -5.52, Y 0.166
K102: A -0.872, C 0.948, D 0.758, E 1.25, F 1.34, G 0.563, H -1.63, I 1.56, L 0.643, M 0.607, N 1.44, P -1.25, Q 2.65, R 2.19, S 0.749, T 1.28, V 0.889, W 1.77, Y 1.3
D103: A 0.291, C 1.14, E 1.66, F 0.826, G 1.32, H 0.857, I 0.368, K 0.633, L 0.32, M -0.761, N 0.59, P -0.105, Q 0.412, R 0.339, S 1.85, T 0.146, V 0.319, W 0.822, Y 0.675
V104: A -0.013, C 0.343, D -0.387, E 0.823, F 1.15, G -0.0739, H -0.483, I 0.904, K -0.552, L 0.894, N -0.244, P 0.45, Q 1.13, R 0.389, S -0.0986, T 0.284, Y 0.986
D105: A 1.52, C 0.824, E 0.837, F 0.419, G 0.621, H 0.701, K 0.591, L 0.724, N 0.431, Q -0.785, R 0.481, S -0.0361, T 0.553, V 0.6, Y 1.72
L106: A -0.169, C -0.159, D 0.107, E 0.17, F 0.883
